Measured values from the DeepSol protein solubility set.

Assay: soluble on expression in E. coli; label from the status in PepcDB or PDB records

Sequence	soluble on expression in E. coli
MSVSITFTDAAKRALASIVAQSERQLKLAFDTDGCGCLVDGVPALWLVDKADEDDVVVETNFMPVLVERSRLIFFDEAMTIDVKPGTTVFQLKSPGQTLNGHMPLVEVKSGHER	not soluble
MSWMQNLKNYQHLRDPSEYMSQVYGDPLAYLQETTKFVTEREYYEDFGYGECFNSTESEVQCELITGEEDPKLLPYDKRLAWHFKEFCYKTSAHGIPMIGEAPLEHHHHHH	soluble
MSWYTSCPKMLLGATAVAVPLGATVFRRESEKSENLLKIKKAKELVETTMAIQGIPGLSIAVSLDGKMVWKSGFGYANLESFAKCTGDSVMRIASISKPITATLAAQCVENGTLDLDEDIRKYLPEFPAKKFKNEDVKITMRQLLSHSAGIRHYATEKKKSETHEDPSNNNTETPEFLSNKPYNSSLDALAIFKNDDLVEKPGSKFSYTTYGLTLAGAVLEKCSGKTYRQLANQLFSDLGMRNTQLDTKEKIVPGRASYYQRNSKNILENCPEVDCSNKFAGGGIISNTTDLLIIANAILHSILSDSKNCLLQRETIRKFLEKQVPVDSKTSTGLGWFLVDGKDLKSIDGNISNSSFFYHTGAAVGASSVLLVNTSSGVCVAILCNLQNTTVLKLGRDIGDLFHGEI	soluble
MSYDRVKDFDLPELAVHLQPHGAVMIDRKSMFYFRLSGRGAQLAFLLSKNKNLHKTARIWEIMKKEEMSADQLKEELSAHPFTEAWTEGLLDQPLHVSGSLDSYLPISCTLQLTNACNLSCSFCYASSGKPYPEELSSEQWILVMQKLAAHGVADITLTGGEAKLIKGFKELVVVASSLFTNVNVFSNGLNWRDEEVELLSHLGNVSVQISIDGMDNTHDQLRGRKGGFKESMNTIKKLSEANIPVIVAMTINESNADEVSDVVEQCANAGAFIFRAGKTLSVGRATEGFKALDIDFEEMVQIQLREARHKWGDRLNIIDWEHEESSFTTDFCTPGYLAWYIRADGYVTPCQLEDLPLGHILEDSMADIGSPARLLQLKCEAKNCKCIGKIELSEPDLPFQKEVKAGIQE	not soluble
MSYDTDPFRGEFDSLEEFADRVSDVLKCPVTIEDANHRLIAYSAHDDYTDPARTATIISRRVPEKVINSLWKQGAIPALLKSREPVRVPPIHDVGLGSRVAVSIWKNDEVIGFIWVLETNRTLSPEEMEWLKLAAKAAKNKVLQLYMRKNKKEERVQELFWKLLTGHIAREDDIRAHLAAMQIPTAPQFAVVVFRFAADLTAEMERQISYLLQTTQQLPLLLYTTDGRDVILLAAPKTDQPLKELNAFIESFAAKMKERFHIHDVQCGFGGVYGIYRLIEKSYREALAVLALKEKLGDEIKSVYGYAQLGIYQFFDLLLEQKRQGEWTNPALTKLQSYDQKHHSDLVKTFETFFDHNENAQETADVLNVHPNTLAYRLKRIADIAELDLNDMNQKIKLYIDIKLAKYEARG	not soluble
MSYERRKTREVSVGTVKIGGENPISIQSMTNTDTRDADATIAQIKRLEEAGCDIVRVAVPDIKAAKNIAKIKSSVNIPIIADIHFDYKLALEAIKQGVDGIRINPGNIGSIERVKMVVEKCKERNLKIRIGVNGGSLEKELLKKYGSATAEALVESAMGHIKILEDLDFHNIVISLKSSDIYKTVDAYELISKKVDYPLHIGITESGSVHKGTIKSSIGVGALLLKGIGDTVRISLTGDPVEEVIVGKQILRSLGLLNDKIKVISCPTCGRCNIDLISVVNEVEEKIGSMEKNITVAIMGCAVNGPGEAREADIGIAGGKGEGLLFKKGEIVRMIDGNKLVDELLEEIEKL	not soluble
MSYNYLKAARKIICIGRNYAAHIKELNNSTPKQPFFFLKPTSSIVTPLSSSLVKTTRPANSTFNGLNEDGTNPGPIFIPRGVKVHHEIELALIVSKHLSNVTKMKPEEVYDSISGVALALDLTARNVQDEAKKKGLPWTISKGFDTFMPISAIVSREKFSSYKSNLQDIFRVKCSVNGQLRQDGGTNLMLHPLHKILQHISTMISLEPGDIILTGTPAGVGELKPGDRVHCELLQNNDNIVDMNFECENRPGPYEFRET	soluble
MSYRYMRMILMFDMPTDTAEERKAYRKFRKFLLSEGFIMHQFSIYSKLLLNNTANNAMIGRLREHNPNKGNITLLTVTEKQFARMIYLHGERNNCIANSDERLVFLGEAFDES	not soluble
